The values that follow come from patent publication US20100322946A1.

Experiment [1] deals with human VEGF165 (human) (UniProt P15692). Nature of the experiment: competition ELISA, hVEGF165 in solution varied.
For experiment [2], the target named is human VEGF (form not stated) (human) (UniProt P15692). Nature of the experiment: biotin-hVEGF with IgG, free VEGF captured on Avastin.

human VEGF165 (human), sequence (P15692 other isoform, or with tags, fused parts or gaps): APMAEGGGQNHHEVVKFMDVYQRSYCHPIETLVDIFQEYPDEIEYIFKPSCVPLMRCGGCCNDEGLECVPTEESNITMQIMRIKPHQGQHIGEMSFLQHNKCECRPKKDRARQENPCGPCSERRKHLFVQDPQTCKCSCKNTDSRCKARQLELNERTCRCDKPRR

For the substance G6 hIgG (antibody), the IC50 (read off the curve) in experiment [1] and in experiment [2] was 3 nM throughout.
